US8637016

Target: EphA3 antigen (Homo sapiens (Human)) (UniProt P29320)
Assay: ELISA on EphA3 antigen

Sequence of UniProt P29320 (P29320 21-541 limits assumed, form in doubt): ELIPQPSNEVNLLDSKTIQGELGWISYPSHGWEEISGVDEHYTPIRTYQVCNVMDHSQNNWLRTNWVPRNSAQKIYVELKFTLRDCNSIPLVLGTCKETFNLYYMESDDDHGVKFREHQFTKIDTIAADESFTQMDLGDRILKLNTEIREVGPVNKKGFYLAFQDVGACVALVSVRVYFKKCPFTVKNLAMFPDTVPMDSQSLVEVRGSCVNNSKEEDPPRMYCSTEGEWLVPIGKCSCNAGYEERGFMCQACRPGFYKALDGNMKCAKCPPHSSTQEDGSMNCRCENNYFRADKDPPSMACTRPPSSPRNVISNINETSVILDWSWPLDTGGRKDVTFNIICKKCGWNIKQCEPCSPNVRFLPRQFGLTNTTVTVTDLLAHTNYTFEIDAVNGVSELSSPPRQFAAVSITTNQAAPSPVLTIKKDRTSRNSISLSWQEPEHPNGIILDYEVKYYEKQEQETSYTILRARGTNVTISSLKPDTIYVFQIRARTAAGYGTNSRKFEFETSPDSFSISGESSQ

Substance: monoclonal antibody IIIA4
- AFFINITY: 2.5 nM
